The values that follow come from patent publication US5763571.

In this experiment the target is c-Ha-Ras bound to GTP (Ras-GTP) (Homo sapiens (Human)) (UniProt P01112). Kind of experiment: assay not given.

In turn, Raf(1-137) had a fold reduction in binding affinity against Raf(1-149) of 10 fold.
